Results as given in the Human Domainome abundance scans (Beltran et al. 2025).
± gives the uncertainty stated by the source.

B1: Gamma-crystallin C, residues 4 to 79; numbered along this chain, P07315 (parent)
chain: ITFYEDRAFQGRSYETTTDCPNLQPYFSRCNSIRVESGCWMLYERPNYQGQQYLLRRGEYPDYQQWMGLSDSIRSC
B2: Tyrosine-protein kinase Lck, residues 63 to 120; numbered along this chain, P06239 (parent)
chain: DNLVIALHSYEPSHDGDLGFEKGEQLRILEQSGEWWKAQSLTTGQEGFIPFNFVAKAN

Variants of: B1
Experiment: abundance fitness (aPCA) (normalised: wild type 0, dead -1); higher = more abundant; growth selection in yeast, the domain comes from the species named
Conditions: Homo sapiens

| Variant | abundance fitness |
| --- | --- |
| R57K | 0.049 ± 0.15 |
| R57L | -0.059 ± 0.081 |
| R57F | 0.059 ± 0.2 |
| R57H | 0.001 ± 0.41 |
| R57A | 0.046 ± 0.12 |
| E36V | 0.008 ± 0.08 |
| E36G | -0.031 ± 0.056 |
| R34C | -0.107 ± 0.11 |
| R34G | -0.593 ± 0.078 |
| W40I | 0.01 ± 0.3 |
| M67E | -0.131 ± 0.081 |
| M67A | -0.03 ± 0.057 |
| M67K | -0.043 ± 0.15 |
| M67S | -0.057 ± 0.11 |
| N22G | -0.158 ± 0.085 |
| N22S | 0.012 ± 0.08 |
| L42R | -1.16 ± 0.33 |
| L42G | -0.063 ± 0.065 |
| T18A | 0.09 ± 0.18 |
| T18G | -0.006 ± 0.033 |
| T18C | -0.165 ± 0.19 |
| Y60F | -0.198 ± 0.28 |
| R29M | 0.096 ± 0.096 |

| Variant | abundance fitness |
| --- | --- |
| R29D | -0.239 ± 0.16 |
| R29E | -0.021 ± 0.096 |
| E5K | -0.162 ± 0.16 |
| L55V | -0.048 ± 0.078 |
| V35Y | -0.827 ± 0.36 |
| S13H | -0.025 ± 0.15 |
| S13E | -0.104 ± 0.09 |
| S13C | -0.058 ± 0.11 |
| S13G | -0.024 ± 0.066 |
| S13T | -0.043 ± 0.13 |
| S13K | 0.148 ± 0.17 |
| S13F | -0.16 ± 0.18 |
| S13V | 0.058 ± 0.1 |
| Y4A | -0.989 ± 0.15 |
| Y48K | -0.813 ± 0.34 |
| Y63L | -0.097 ± 0.076 |
| R7F | -0.082 ± 0.17 |
| R74M | 0.007 ± 0.082 |
| R74C | 0.037 ± 0.088 |
| G11R | -0.155 ± 0.047 |
| G11M | -0.504 ± 0.14 |
| F9T | -0.56 ± 0.3 |
| E59T | -0.196 ± 0.34 |

| Variant | abundance fitness |
| --- | --- |
| E59G | 0.019 ± 0.048 |
| E59W | -0.275 ± 0.099 |
| D19P | -0.35 ± 0.16 |
| D19Y | -0.187 ± 0.24 |
| D19V | -0.101 ± 0.089 |
| D19M | -0.037 ± 0.091 |
| Y14I | 0.003 ± 0.098 |
| Y14T | -0.167 ± 0.16 |
| S32G | -0.424 ± 0.083 |
| E44I | -0.02 ± 0.26 |
| G58W | -0.408 ± 0.12 |
| G58V | -1 ± 0.22 |
| G58K | -0.197 ± 0.17 |
| T16H | 0.007 ± 0.096 |
| T16S | -0.034 ± 0.093 |
| D62W | 0.059 ± 0.087 |
| D62A | -0.006 ± 0.053 |
| S75M | -0.675 ± 0.13 |
| S75T | -0.828 ± 0.17 |
| L69E | 0.017 ± 0.075 |
| L69Y | -0.001 ± 0.18 |
| L69N | -0.045 ± 0.18 |
| L69K | -0.104 ± 0.091 |

| Variant | abundance fitness |
| --- | --- |
| L69M | -0.163 ± 0.1 |
| F3R | -1.18 ± 0.28 |
| M41R | -0.018 ± 0.069 |
| M41H | -0.186 ± 0.18 |
| M41W | 0.039 ± 0.1 |
| M41E | 0.059 ± 0.12 |
| Q49G | -0.045 ± 0.052 |
| Q49R | -0.07 ± 0.059 |
| Q49K | -0.056 ± 0.18 |
| G38M | -0.141 ± 0.34 |
| G38T | -0.191 ± 0.11 |
| G38Y | -0.109 ± 0.18 |
| Y53P | -0.947 ± 0.2 |
| Y53E | -0.142 ± 0.12 |
| Q51M | -0.088 ± 0.22 |
| D6E | -0.038 ± 0.12 |
| D6M | 0.159 ± 0.25 |
| D6C | 0.069 ± 0.19 |
| Y26H | -0.082 ± 0.22 |
| Y26W | -0.092 ± 0.1 |
| S28A | -0.038 ± 0.1 |
| S28Q | -0.057 ± 0.17 |
| S28I | -0.017 ± 0.089 |

| Variant | abundance fitness |
| --- | --- |
| S28Y | -0.012 ± 0.22 |
| I1L | -0.4 ± 0.38 |
| G50D | -0.456 ± 0.2 |
| G50S | -0.244 ± 0.1 |
| R56K | -0.018 ± 0.29 |
| R56C | 0.086 ± 0.16 |
| R56L | -0.062 ± 0.074 |
| T17S | -0.061 ± 0.088 |
| T17D | -0.135 ± 0.16 |
| T17E | 0.046 ± 0.14 |
| T17A | -0.014 ± 0.096 |
| T17C | 0.054 ± 0.19 |
| W66Q | 0.046 ± 0.17 |
| W66H | -0.01 ± 0.18 |
| G68P | -0.02 ± 0.069 |
| G68W | 0.003 ± 0.08 |
| G68N | -0.053 ± 0.14 |
| G68C | 0.117 ± 0.083 |
| P21E | -0.074 ± 0.13 |
| P21H | -0.164 ± 0.18 |
| P21W | -0.05 ± 0.12 |
| P21R | -0.131 ± 0.052 |
| P21T | 0.006 ± 0.097 |

| Variant | abundance fitness |
| --- | --- |
| F27K | -0.658 ± 0.12 |
| F27G | -0.186 ± 0.063 |
| Q64V | -0.022 ± 0.062 |
| Q64N | 0.044 ± 0.082 |
| Q64F | -0.09 ± 0.12 |
| Q64A | -0.08 ± 0.056 |
| Q64W | -0.021 ± 0.07 |
| Y43P | -1.03 ± 0.45 |
| Y43G | -0.775 ± 0.083 |
| Q10T | 0.034 ± 0.15 |
| Q10K | 0.158 ± 0.11 |
| Q10L | -0.123 ± 0.067 |
| R45A | -0.025 ± 0.084 |
| R45H | -0.057 ± 0.22 |
| R45F | 0.032 ± 0.13 |
| R12Q | 0.022 ± 0.083 |
| R12L | -0.034 ± 0.053 |
| S70C | 0.101 ± 0.16 |
| S70Y | 0.047 ± 0.096 |
| E15A | -0.113 ± 0.14 |
| E15K | 0.165 ± 0.33 |
| L54V | 0.02 ± 0.084 |
| L54R | -0.104 ± 0.081 |

| Variant | abundance fitness |
| --- | --- |
| L54I | -0.135 ± 0.15 |
| L54N | -0.025 ± 0.35 |
| T2M | -0.116 ± 0.42 |
| S72F | 0.119 ± 0.084 |
| S72L | -0.052 ± 0.072 |
| C30Y | -0.472 ± 0.34 |
| Q52V | -0.076 ± 0.11 |
| Q52E | 0.014 ± 0.17 |
| Q52L | -0.017 ± 0.11 |
| Q52A | -0.014 ± 0.16 |
| P61F | -0.039 ± 0.25 |
| P61T | -0.142 ± 0.087 |
| P61D | -0.034 ± 0.2 |
| L23E | -0.617 ± 0.16 |
| L23G | -0.727 ± 0.12 |
| Q24G | 0.027 ± 0.074 |
| I73R | -0.854 ± 0.1 |
| Q65I | -0.133 ± 0.15 |
| P25I | -0.174 ± 0.17 |
| P25N | 0.048 ± 0.2 |
| P25F | -0.076 ± 0.13 |
| P25V | 0.054 ± 0.087 |

Variants of: B2
Experiment: as above
Conditions: Homo sapiens

| Variant | abundance fitness |
| --- | --- |
| I49K | -0.771 ± 0.18 |
| I49E | -0.996 ± 0.14 |
| I49C | -0.67 ± 0.15 |
| I49F | -0.427 ± 0.16 |
| I49T | -0.622 ± 0.14 |
| I49G | -0.905 ± 0.11 |
| I49Q | -0.796 ± 0.17 |
